Results on four molecules are retold here after paper PMC8109768, “Differential recognition of HIV-stimulated IL-1β and IL-18 secretion through NLR and NAIP signalling in monocyte-derived macrophages” (PLoS Pathogens, 2021).

The target in assay [1] is NAIP (human) (UniProt Q13075). The assay is described as follows: SPR; BIAcore 3000; NAIP amine-coupled to a CM5 chip; gp41 proteins (500ng, 1μg, 5μg, 10μg) injected at flow rate 10 ml/min for 240 s; flagellin as positive control; BIA EVALUATION 3.0. For orientation: SPR reads the build-up and loss of mass on a sensor chip optically.
The target in assay [2] is NAIP (human) (UniProt Q13075). The assay is described as follows: FRET or BRET; FRET between fluorophore-labelled antibodies (Alexa488 donor, Alexa546 acceptor) in monocyte-derived macrophages infected with HIV-1; dequenching of the donor after photobleaching of the acceptor. (In general: In BRET a luciferase serves as donor, and the signal depends on an acceptor being close.)

The next assay has as its target T1, NAIP (human, UniProt Q13075-1 1-1403).
T1 construct: NAIP, human, endogenous protein; for SPR pulled out of a human cell lysate with an antibody column; also called human NAIP; endogenous NAIP; source: purified from human cell lysate (NHS column with NAIP antibody LS-B455, dialysis, gel filtration); endogenous, human monocyte-derived macrophages (in cells and in lysate)
T1 sequence (looked up): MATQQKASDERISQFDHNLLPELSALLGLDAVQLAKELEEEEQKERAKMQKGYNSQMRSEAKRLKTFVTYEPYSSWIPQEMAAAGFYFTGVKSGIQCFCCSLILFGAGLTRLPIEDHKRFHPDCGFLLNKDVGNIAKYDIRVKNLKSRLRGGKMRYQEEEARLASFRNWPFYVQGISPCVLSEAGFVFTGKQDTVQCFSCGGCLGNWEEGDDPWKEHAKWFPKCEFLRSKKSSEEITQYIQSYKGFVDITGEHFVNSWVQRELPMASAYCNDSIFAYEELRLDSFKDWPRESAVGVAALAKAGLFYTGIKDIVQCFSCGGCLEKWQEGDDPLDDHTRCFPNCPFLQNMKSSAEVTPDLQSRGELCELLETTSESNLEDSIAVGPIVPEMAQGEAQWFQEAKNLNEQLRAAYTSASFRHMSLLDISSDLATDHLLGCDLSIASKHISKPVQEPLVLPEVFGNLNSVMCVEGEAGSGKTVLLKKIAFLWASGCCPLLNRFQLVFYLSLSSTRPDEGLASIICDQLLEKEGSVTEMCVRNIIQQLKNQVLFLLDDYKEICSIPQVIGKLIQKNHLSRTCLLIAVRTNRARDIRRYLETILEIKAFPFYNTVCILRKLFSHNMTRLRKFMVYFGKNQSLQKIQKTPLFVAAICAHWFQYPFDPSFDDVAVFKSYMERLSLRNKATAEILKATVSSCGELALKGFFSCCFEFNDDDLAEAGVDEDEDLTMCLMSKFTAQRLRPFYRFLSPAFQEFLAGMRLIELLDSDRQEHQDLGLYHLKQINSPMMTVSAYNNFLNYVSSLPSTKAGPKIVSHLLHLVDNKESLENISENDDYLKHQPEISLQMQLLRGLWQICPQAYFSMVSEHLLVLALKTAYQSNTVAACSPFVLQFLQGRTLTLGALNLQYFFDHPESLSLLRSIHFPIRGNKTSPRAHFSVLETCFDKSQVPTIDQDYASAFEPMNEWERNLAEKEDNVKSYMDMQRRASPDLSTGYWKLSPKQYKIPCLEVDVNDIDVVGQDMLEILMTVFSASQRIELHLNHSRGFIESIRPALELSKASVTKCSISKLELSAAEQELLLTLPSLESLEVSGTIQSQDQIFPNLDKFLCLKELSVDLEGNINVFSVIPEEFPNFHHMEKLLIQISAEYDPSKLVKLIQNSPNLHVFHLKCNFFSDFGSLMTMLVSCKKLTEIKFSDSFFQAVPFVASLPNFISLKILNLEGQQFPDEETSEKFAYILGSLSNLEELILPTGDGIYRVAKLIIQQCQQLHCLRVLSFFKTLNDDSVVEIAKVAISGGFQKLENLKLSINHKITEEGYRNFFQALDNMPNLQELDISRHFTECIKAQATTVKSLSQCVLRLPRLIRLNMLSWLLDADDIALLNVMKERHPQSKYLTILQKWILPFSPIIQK
The assay is described as follows: SPR; BIAcore 3000; NAIP amine-coupled to a CM5 chip; gp41 proteins (500ng, 1μg, 5μg, 10μg) injected at flow rate 10 ml/min for 240 s; flagellin as positive control; BIA EVALUATION 3.0. As to conditions: both partners purified.

As usually defined, the Kd is a measure of binding affinity in units of concentration. High values mean lower affinity, low ones higher affinity. One may read the koff as the first-order rate constant of dissociation. Low readings indicate slow dissociation, high ones fast dissociation. By kon is commonly meant the second-order rate constant of association. As for “gp41 CT (from UniProt P04578 707-856) (domain or fragment)”, in the assay with NAIP (human) [1], the Kd worked out at 0.413 nM, the koff was found to be 9.87e-06 s⁻¹ and the kon came out at 23900 M⁻¹ s⁻¹.

As to “Flagellin (from UniProt P06179 1-495) (natural protein)”, in the assay with NAIP (human) [1], the Kd was 0.0247 nM, the koff came to 9.81e-07 s⁻¹ and the kon is 39700 M⁻¹ s⁻¹.

Take “HIV-1 glycoprotein 41 (gp41) (natural protein)”: in the assay with NAIP (human) [2], the FRET efficiency E came out at 24%.

B1: gp41TM/CT (domain or fragment)
chain: FIMIVGGLVGLRIVFAVLSIVNRVRQGYSPLSFQTHLPTPRGPDRPEGIEEEGGERDRDRSIRLVNGSLALIWDDLRSLCLFSYHRLRDLLLIVTRIVELLGRRGWEALKYWWNLLQYWSQELKNSAVSLLNATAIAVAEGTDRVIEVVQGACRAIRHIPRRIRQGLERILL
With B1, in the assay with NAIP, binding was characterised by a dissociation constant (Kd) of 1.59 nM, the koff was 6.91e-05 s⁻¹ and the kon came out at 43500 M⁻¹ s⁻¹.
